Where a chain is given by its changes, count along the chain named.
How the values were obtained:
[1] = target: NMC-P3 peptide (SEQ ID NO:3), amino acids 475-491 of HDM2 (Homo sapiens, UniProt Q00987); test: Peptide-ELISA; type: binding; conditions: 5 μg/ml peptide on plate, OD 450 nm
Protocol: Peptide-ELISA Methodology: 5 μg/ml of NMC-P1, NMC-P2 or NMC-P3 peptide antigen was dried onto a 96-well ELISA plate overnight. Plates were then blocked with 5% BSA in 1× phosphate-buffered saline (PBS) (100 μl/well) for 2 hours at room temperature. Microplate wells were then washed 5 times with 300 μl of ice cold 1×PBS. Appropriate dilutions of monoclonal antibodies NMC-103, NMC-204 or NMC-303 in 1% bovine serum albumin (BSA) in PBS solution were then incubated with their corresponding peptides (NMC-P1, NMC-P2 or NMC-P3, respectively) at room temperature. After 2 hours, wells were washed 5 times with 300 μl ice-cold PBS/well and 100 μl secondary antibody (HRP-labeled Goat anti-Mouse F(ab′)2 H&L cross-adsorbed secondary antibody (HRP-GaM F(ab′)2), ThermoFisher, Cat. No. A24524) diluted 1:2500 to 1:5000 in PBS-1% BSA solution were added and the incubation continued at room temperature. After 1 hour, the wells were washed again 5 times with 200 μl of ice-cold PBS and 50 μL of the TMB Substrate Solution (1-Step™ Ultra TMB-ELISA, ThermoFisher, Cat. No. 34028) were added to each well and color was allowed to develop for 30 minutes at room temperature. The reaction was stopped by addition of 50 μL of stop solution (ThermoFisher, Cat. No. SS04) to each well and absorbance of each well was read immediately for optical density (OD) at 450 nm.

[2] = system: mouse pancreatic cancer Panc-2 cells; test: Panc-2 syngeneic mouse model of pancreatic cancer; type: in vivo
Protocol: Methodology used (Syngeneic Mouse Models of lung, colon and pancreatic cancer): To investigate the anti-tumor effects of HDM2-specific antibodies on lung, colon and pancreatic tumors in vivo, three well-known syngeneic mouse models of lung, colon and pancreatic cancer were used (Sharma et al., 1999, J. Immunol. 163 (9):5020-5028; McIntyre, 2015, Bioassays 37(8):909-920; Li, et al., 2015, Sci. Rep. 5:7856). Subcutaneous tumors were prepared by implanting either mouse Lewis Lung cancer LL/2 cells (2.5×10^5 cells/mouse), mouse colon cancer MC-38 cells (5×10^5 cells/mouse) or mouse pancreatic cancer Panc-2 cells (2×10^6 cells/mouse) in the right flanks of 8-week-old female C57BL/6 mice (n=6-7). The mice were returned to their respective cages after tumor implantation. From day 7 after tumor implantation, the tumor volumes were measured 2 times/week with a digital caliper. In the case of MC-38 and Panc-2 study, treatment started when the tumors reached an average of 70-80 mm^3. In the case of LL/2 study, tumor cell inoculation and treatment were initiated simultaneously. Mice were micro-chipped and registered following tumor implantation. Tumor volume measurements and body weights were recorded and mice were randomized into groups that received: A) mAb NMC-103 at 0.4 mg/kg (3 times a week for 3 weeks), 2 mg/kg (2 times a week for 3 weeks), or 4 mg/kg (2 times a week for 3 weeks); B) NMC-204 at 0.4 mg/kg (3 times a week for 3 weeks); C) isotype control mouse IgG1 (Abcam, Cat. No. ab18447) or IgG3 (Abcam, Cat. No. ab18392) at 0.4 mg/kg (3 times a week for 3 weeks) or 4 mg/kg (2 times a week for 3 weeks); D) Gemcitabine (25 mg/kg) and nab-paclitaxel (5 mg/kg) 2 times a week for 3 weeks; or E) a combination of gemcitabine (25 mg/kg), nab-paclitaxel (5 mg/kg) and mAb NMC-103 (2 mg/kg; 2 times a week for 3 weeks) or (10 mg/kg; 2 times a week for 2 weeks). All tumors were injected subcutaneously and all treatments were performed by intraperitoneal injection. Any mouse displaying prolonged adverse clinical signs, or with body weight loss exceeding 15% relative to body weight at day 0, was euthanized. Tumor measurements from post-treatment with HDM2-specific antibodies versus isotype control mouse antibodies versus standard of care treatment (gemcitabine and nab-paclitaxel) were made, and results are presented in FIGS. 16-19.
The anti-tumor efficacy of NMC-103 and of its combination with pancreatic cancer standard of care treatment Gemcitabine (G) and nab-Paclitaxel (nP) was further evaluated in vivo utilizing the Panc-2 syngeneic mouse model of pancreatic cancer discussed above. In this Panc-2 study, treatment started after Panc-2 cell inoculation and when the tumors reached 80-100 mm^3, with mAb NMC-103 administered at 10 mg/kg, two times a week in a larger number of mice (n=8/group) than that used for the study of FIG. 19.
Evaluation of anti-tumor effects of antibody OP145 on pancreatic tumor growth in vivo: Subcutaneous tumors were prepared by implanting Panc02 cells (2×10^6 per mouse) in the right flanks of female 8-week-old C57BL/6 mice. The mice were returned to their respective cages after tumor implantation. From day 7 after tumor implantation, the tumor volumes were measured 2 times/week with a digital caliper. Treatment started when the tumors reached an average of 200 mm^3 (see FIG. 26, day 14). Mice were micro-chipped and registered following tumor implantation. Tumor volume measurements and body weights were recorded and mice were randomized into two groups that received either OP145 antibody (by intra-tumoral injection of 0.1 mg/kg of mouse monoclonal antibody OP145, 3 times per week) or PBS. Three mice were treated with OP145, and five mice were treated with PBS. Any mouse displaying prolonged adverse clinical signs, or with body weight loss exceeding 15% from Day 0 body weight, was euthanized. Tumor measurements from the first 10 days post treatment with OP145 antibody versus PBS were made, and results are represented in FIG. 26. […]

OVCAR-3 cells = test: Flow cytometry on live (7AAD negative) cells; type: cell-based, human
Protocol: Cells that had been allowed to grow to about 80% confluency in 75 cm^2 tissue culture flasks were released with either EDTA (10 mmols; pH 7.2; 5 min, 37° C.) or Trypsin (Gibco TrypLE Express), washed several times with ice-cold PBS, and blocked for 20 minutes on ice with 5% human serum albumin in PBS (intact, non-permeabilized cells). After establishing viability, the cell number was adjusted to 10^6 cells/ml and kept in ice-cold PBS until staining. Cells were then incubated with primary antibodies NMC-H103 (VH4/VK3) or NMC-C303 (1 μg/ml) for 30 minutes on ice. Following primary antibody incubation, cells were washed 3 times with ice-cold PBS, followed by incubation with goat anti-human PE labeled secondary antibody (Life technologies H10104) on ice for 20 minutes. Cells were then washed 3 times with PBS and incubated with 7AAD (5 μl/[…] of buffer) before flow cytometry analysis using Fortessa 5.

B1: NMC-204: mouse monoclonal antibody of the IgG3 isotype that binds to NMC-P2 (SEQ ID NO:2); VH SEQ ID NO:38, VL SEQ ID NO:39 (antibody, V domains shown)
VH: EVQLQESGSVLVRPGASVKLSCKASGDTLSGSWMHWAMQRPGQGLEWIGEIHLNRGTTNYNEKFKGKATVTVDTSSSTAYVDLSSLTSEDSAVYYCARSPGFAYWGQGTLVTVSA
VL: GIVMTQAAPSVPVTPGESVSISCRSSKSLLHSNGNSYLYWFLQRPGQSPQLLIYRMSNLASGVPDRFSGSGSGTAFTLRITRVEAEDVGVYYCMQHLEYPFTFGSGTKLEIK
modifications: mAb NMC-204 Heavy Chain Variable Region; mAb NMC-204 Light Chain Variable Region
For B1, the “binding to NMC-P3 peptide” value [1] was “did not bind”.

B2: NMC-103: mouse monoclonal antibody of the IgG1 isotype that binds to NMC-P1 (SEQ ID NO:1); VH SEQ ID NO:36, VL SEQ ID NO:37 (antibody, V domains shown)
VH: EVQLQESGGGLVQPGGSLRLSCTTSGFTFTHYYMSWVRQPPGKALEWLGFIRNKAKGYTAEYSASVKGRFTISRDNSQSILYLQMNTLRPEDSATYYCARDIGDNWGQGTLVTVSS
VL: DIVMTQAAFSNPVTLGTSASISCRSSKNLLHSNGITYLYWYLQRPGQSPQLLISRVSNLASGVPNRFSGSESGTDFTLRISRVEAEDVGVYFCAQLLELPYTFGGGTKLEIK
modifications: mAb NMC-103 Heavy Chain Variable Region; mAb NMC-103 Light Chain Variable Region
In the case of B2, the average tumor volume ([2]; Panc-2, n=6, start at ~70 mm^3, i.p. 2 times a week for 3 weeks (6th dose day 19), then 2 weeks off, antibody 2 mg/kg, Gemcitabine 25 mg/kg, nab-Paclitaxel 5 mg/kg, by day 35) is reported as 1523 mm^3, the “average tumor size / measurement” value ([2]; Panc-02, start at 80-100 mm^3, n=8/group, i.p. 2 times a week for 4 weeks, NMC-103 10 mg/kg, Gemcitabine 25 mg/kg, nab-Paclitaxel 5 mg/kg, by day 34, in NMC-103 groups attributed to scar and inflammation) is reported as 230 mm^3 and the “tumor size 6 days post single i.p. injection” value ([2]; Panc-2, mice pre-treated with Gemcitabine 25 mg/kg + nab-Paclitaxel 5 mg/kg for 19 days (~450 mm^3), single dose 10 mg/kg, from 438 mm^3) is reported as 233 mm^3. For the same molecule, the “tumor growth during 4 further weeks without drug treatment” value ([2]; Panc-02 study of FIG. 27, up to 62 days since start) was “no sign of tumor growth beyond the initial scar size”, the “Kaplan Meier survival analysis” value ([2]; conditions of FIG. 27, compared to chemotherapy alone or control antibody) was “significant survival benefit” and the “tumor 10 days after re-challenge with Panc-2 cells” value ([2]; previously treated mice re-challenged at day 62, 2×10^6 cells s.c. left dorsal flank, no further drug) was “no tumor was observed”.

B3: NMC-H103 (VH4/VK3): humanized NMC-103 variant, human IgG1, VH4 (SEQ ID NO:299) and VK3 (SEQ ID NO:297) (antibody, V domains shown)
VH: B2 VH with Q5V, G16P, P40A, A44G, Q78K, I80T, T87S, P90A, S93T, T95V
VL: B2 VL with A7T, A8P, F9L, N11S, T17Q, S18P, R44K, N65D, R79K, L109V
modifications: human IgG1 constant regions lacking entries; mAb NMC-H103.VH4Heavy Chain Variable Region; mAb NMC-H103.VK3Light Chain Variable Region
In the case of B3, the “binding to live cells briefly treated with trypsin, flow cytometry” value (OVCAR-3 cells; 7AAD negative) is reported as “reduced” and the “binding to live (7AAD negative) cells, flow cytometry” value (OVCAR-3 cells; antibody 1 μg/ml) is reported as “binding”.

Reference: patent publication US20220098328A1, “ANTIBODIES TO M(H)DM2/4 AND THEIR USE IN DIAGNOSING AND TREATING CANCER” (NomoCan Pharmaceuticals LLC, priority 2017, published 2022)
